This note sets out measurements from US20180169233A1 (MOSAIC BIOMEDICALS S L, published 2018).

The test addresses human LIF (source not stated) (human, UniProt P15018 23-202). Kind of test: cell-based or functional assay.

Chain of human LIF (source not stated) (P15018 23-202 limits assumed): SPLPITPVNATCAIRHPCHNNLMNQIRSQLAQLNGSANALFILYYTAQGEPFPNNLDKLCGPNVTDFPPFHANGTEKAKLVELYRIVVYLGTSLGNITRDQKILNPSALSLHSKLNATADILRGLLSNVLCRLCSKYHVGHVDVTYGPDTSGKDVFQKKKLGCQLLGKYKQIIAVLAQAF

B1: h5D8 (humanized 5D8 comprising H2 and L2) (antibody, human IgG1, kappa, V domains shown)
VH: QVQLQESGGGLVKPGGSLRLSCAASGFTFSHAWMHWVRQAPGKGLEWVGQIKAKSDDYATYYAESVKGRFTISRDDSKNTLYLQMNSLKTEDTAVYYCTCWEWDLDFWGQGTMVTVSS
VL: DIVMTQTPLSSPVTLGQPASISCRSSQSLLDSDGHTYLNWLQQRPGQPPRLLIYSVSNLESGVPDRFSGSGAGTDFTLKISRVEAEDVGVYYCMQATHAPPYTFGQGTKLEIKR
For B1, the “IC50 for biological inhibition (pSTAT3, U-251 cells, serum starved, endogenous LIF)” value worked out at 490 picomolar.
